The values below come from US20100254975A1 (Amgen, published 2010).

Where a chain is given by its changes, count along the chain named.

Test [1] concerns the target a4b7(R213S) (human) (UniProt P13612). Nature of the test: FACS on transfected 293 cells, 1 microG/ml, PE anti-human IgG; control.
Test [2] addresses a4(Q878R)b7 (human) (UniProt P13612). The test is described as above.
Test [3] concerns the target a4(V824A)b7 (human) (UniProt P13612). Described as above.
Test [4] concerns the target a4b7(E97V) (human) (UniProt P13612). Described as above.
Test [5] deals with T1, human alpha4beta7 (human, UniProt P13612 34-1032; P26010 20-798). Described as above.
T1 sequence (P13612 34-1032, chain 1 of 2): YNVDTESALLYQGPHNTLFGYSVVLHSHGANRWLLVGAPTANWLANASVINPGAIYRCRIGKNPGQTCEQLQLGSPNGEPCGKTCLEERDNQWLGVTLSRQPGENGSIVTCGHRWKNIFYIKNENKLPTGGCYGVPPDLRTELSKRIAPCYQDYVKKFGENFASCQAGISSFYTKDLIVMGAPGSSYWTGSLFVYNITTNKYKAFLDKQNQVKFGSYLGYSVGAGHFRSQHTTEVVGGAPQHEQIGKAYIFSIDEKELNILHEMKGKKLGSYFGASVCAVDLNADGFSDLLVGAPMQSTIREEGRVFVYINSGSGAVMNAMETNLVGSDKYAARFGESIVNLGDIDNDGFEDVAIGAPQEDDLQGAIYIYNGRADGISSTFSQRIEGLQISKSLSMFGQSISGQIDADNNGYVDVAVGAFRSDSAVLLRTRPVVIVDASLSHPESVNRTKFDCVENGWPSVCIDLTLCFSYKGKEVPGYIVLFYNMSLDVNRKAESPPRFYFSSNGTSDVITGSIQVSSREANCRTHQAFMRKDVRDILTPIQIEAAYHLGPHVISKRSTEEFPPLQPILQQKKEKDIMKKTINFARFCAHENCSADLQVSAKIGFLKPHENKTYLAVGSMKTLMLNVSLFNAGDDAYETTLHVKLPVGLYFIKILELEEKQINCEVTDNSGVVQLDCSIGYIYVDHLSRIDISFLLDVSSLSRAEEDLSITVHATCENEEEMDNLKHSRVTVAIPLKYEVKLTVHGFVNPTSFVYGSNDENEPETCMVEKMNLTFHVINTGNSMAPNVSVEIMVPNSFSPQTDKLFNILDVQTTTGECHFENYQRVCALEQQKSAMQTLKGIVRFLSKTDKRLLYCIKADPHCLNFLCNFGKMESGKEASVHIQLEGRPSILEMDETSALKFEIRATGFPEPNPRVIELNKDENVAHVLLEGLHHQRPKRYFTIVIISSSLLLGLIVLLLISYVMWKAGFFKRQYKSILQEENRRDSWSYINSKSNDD
T1 sequence (P26010 20-798, chain 2 of 2): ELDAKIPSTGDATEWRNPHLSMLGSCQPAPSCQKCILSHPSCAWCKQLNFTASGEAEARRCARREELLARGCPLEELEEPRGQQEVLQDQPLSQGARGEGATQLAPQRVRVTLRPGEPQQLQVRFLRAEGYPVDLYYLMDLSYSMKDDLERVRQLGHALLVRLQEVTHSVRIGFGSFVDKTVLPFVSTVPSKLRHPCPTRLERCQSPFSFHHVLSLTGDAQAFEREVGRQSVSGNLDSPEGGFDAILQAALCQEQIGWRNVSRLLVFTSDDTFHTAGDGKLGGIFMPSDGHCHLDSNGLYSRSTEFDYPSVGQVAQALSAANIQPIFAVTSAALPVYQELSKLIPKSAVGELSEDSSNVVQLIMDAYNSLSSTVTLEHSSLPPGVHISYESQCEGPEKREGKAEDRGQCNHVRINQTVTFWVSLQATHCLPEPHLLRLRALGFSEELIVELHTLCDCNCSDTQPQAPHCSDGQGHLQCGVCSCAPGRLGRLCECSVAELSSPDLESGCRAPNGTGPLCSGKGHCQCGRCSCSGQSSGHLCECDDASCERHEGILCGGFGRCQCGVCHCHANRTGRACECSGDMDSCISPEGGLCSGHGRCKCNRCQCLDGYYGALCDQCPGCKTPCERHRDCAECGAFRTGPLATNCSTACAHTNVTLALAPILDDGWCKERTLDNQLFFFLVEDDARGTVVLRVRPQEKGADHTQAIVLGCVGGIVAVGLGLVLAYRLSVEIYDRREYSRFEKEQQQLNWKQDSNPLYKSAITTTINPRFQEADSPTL
Test [6] addresses a4b7(G629S) (human) (UniProt P13612). Described as above.
Test [7] has as its target T1, human alpha4beta7. Nature of the test: FACS competition, blocks biotinylated MAdCAM-1-Fc binding to human CD4+CD45RA- memory T cells. On the procedure:
PBMC (fresh or frozen as described previously) are washed and resuspended in HEPES buffer (30 mM HEPES+[…]) with 1% BSA and 1 mM MnCl. to a final concentration of 10⁷cells/ml. Cells are blocked as described previously; after blocking, cells are incubated with a serial dilution of anti-alpha4beta7 antibody (or appropriate control) in 96 well plates for 30 minutes on ice, and then with 0.3 microG/ml biotinylated MAdCAM-1-Fc protein for another one hour.
After two washes in HEPES buffer with 1 mM MnCl, cells are treated with 1:100 dilution of streptavidin-PE, 4 microL CD3-Pacific Blue, CD4-PerCP-Cy5.5 and CD45RA-FITC as described previously, in a final volume of 100 microL. After one hour incubation on ice, cells are washed twice with HEPES buffer with 1 mM MnCl and then fixed in 200 microL buffer plus 0.5% paraformaldehyde. The percentage of positive MAdCAM-1-Fc binding CD4+CD45RA-memory T cells is determined by fluorescence activated cell sorter (FACS) analysis, as described previously.

Test [8] addresses T1, human alpha4beta7. Nature of the test: KinExA, HUT78 cells expressing human alpha4beta7, lower bound of Kd. An excerpt: (§1) To measure cell binding affinity of human anti-alpha4beta7antibodies, a Kinetic Exclusion Assay which measures binding events in solution phase can be used to calculate the equilibrium dissociation constant, Kd. KinExA® Technology (Sapidyne Instruments, Boise, Id.) was used, substantially as described previously by Xie et. al. J. Imm, Methods 304:1 (2005) and Rathanaswami et. al. Anal. Biochem. 373:52 (2008). Briefly, HUT78 cells expressing human alpha4beta7 were titrated 1 in 3 from […] to ˜400 cells/mL and then equilibrated with a final concentration of either 2 or 30 pM of mAb 2F12 or 18A11 and 30 or 500 pM for 17C8 for 18 hours at 4° C. The free antibody remaining in the supernatant at equilibrium was measured by KinExA® technology by passing the supernatant over PMMA beads pre-coated with goat anti-human Fc and detected with goat anti-human (H+L) Cy5 (substantially as described by Rathanaswami et al. Biochem Biophys Research Commun:1004 (2005). The equilibrium dissociation constant (Kd) is obtained using KinExA® software by “n-curve analysis” which fits all of the given curves to a single Kdvalue simultaneously (Rathanswami et al. 2005 and Xie et al., supra).; results are shown below in Table 7.

Test [9] addresses T1, human alpha4beta7. Briefly: FACS, biotinylated antibody on human CD4+CD45RA- memory T cells. On the procedure: Human peripheral blood mononuclear cells (PBMC; fresh or frozen and thawed, for example in phosphate buffered saline with 2% FBS) are washed and resuspended in HEPES buffer (30 mM HEPES+[…]) with 1% BSA, with or without 1 mM MnCl₂ (depending on the experiment; Mn²⁺ is necessary for MAdCAM-1 binding) and plated into 96 well plates (10⁶cells/well). Cells are incubated with 10 microG/ml human IgG for 30 minutes on ice to block nonspecific binding. Cells are then incubated with serial dilutions of biotinylated anti-alpha4beta7 antibodies in 96 well plates for one hour on ice, followed by addition of 1:100 dilution of streptavidin-phycoerythrin (PE; Jackson ImmunoResearch Laboratories Inc., West Grove, Pa.), 4 microL CD3-Pacific Blue, CD4-PerCP-Cy5.5 and CD45RA-fluorescein isothiocyanate (FITC) (BD Biosciences, San Jose Calif.) for a final volume of 100 microL, and incubated for another hour on ice. Cells were washed twice with HEPES buffer (with or without MnCl₂, correspondingly) and then fixed in 200 microL HEPES buffer plus 0.5% paraformaldehyde (again, with or without MnCl₂, correspondingly). The percentage of positive alpha4beta7 antibody binding CD4+CD45RA-memory T cells is determined using a fluorescence activated cell sorter (FACS), for example, a BD™ LSR II benchtop flow cytometer (BD Biosciences, San Jose Calif.).

The target in test [10] is T1, human alpha4beta7. Nature of the test: KinExA, HUT78 cells expressing human alpha4beta7, n-curve analysis.
Description: as §1

For test [11], the target named is T1, human alpha4beta7. Nature of the test: KinExA, HUT78 cells expressing human alpha4beta7, upper bound of Kd.
Description: as §1

The target of test [12] is T1, human alpha4beta7. Briefly: cell-based or functional assay.
Test [13] addresses a4b7(R213S) (human) (UniProt P13612). Nature of the test: FACS on transfected 293 cells, 1 microG/ml, PE anti-human IgG.
Test [14] addresses a4(Q878R)b7 (human) (UniProt P13612). Described as above.
The target of test [15] is a4(V824A)b7 (human) (UniProt P13612). Described as above.
a4(V824A)b7 (human), sequence (P13612 34-1032 V824A, chain 1 of 2): as the sequence (P13612 34-1032, chain 1 of 2) above, with V791A counted along it
a4(V824A)b7 (human), sequence (P26010 20-798, chain 2 of 2, further chain): as the sequence (P26010 20-798, chain 2 of 2) above
The target in test [16] is a4b7(E97V) (human) (UniProt P13612). The test is described as above.
a4b7(E97V) (human), sequence (P13612 34-1032, chain 1 of 2): as the sequence (P13612 34-1032, chain 1 of 2) above
a4b7(E97V) (human), sequence (P26010 20-798 E97V, chain 2 of 2, further chain): as the sequence (P26010 20-798, chain 2 of 2) above, with E78V counted along it
In test [17] the target is a4b7(G629S) (human) (UniProt P13612). The test is described as above.
a4b7(G629S) (human), sequence (P13612 34-1032, chain 1 of 2): as the sequence (P13612 34-1032, chain 1 of 2) above
a4b7(G629S) (human), sequence (P26010 20-798 G629S, chain 2 of 2, further chain): as the sequence (P26010 20-798, chain 2 of 2) above, with G610S counted along it
Test [18] concerns the target T1, human alpha4beta7. The description is as above. An excerpt: Point mutant constructs representing amino acid altering SNPs (a4b7(E97V); a4b7(R213S); a4b7(G629S; a4(V824A)b7; a4(Q878R)b7) in the extracellular domains of both alpha4 and beta7 were generated. Each point mutant construct was transfected to 293 cells along with the wild-type partner expression construct. Transfected 293 cells were first stained with 1 microG/ml of human IgG or anti-alpha4beta7 antibody, washed with PBS, and the stained with phycoerytherin conjugated secondary antibody goat-anti human IgG. After washing with PBS, cells were analyzed by fluorescence activated cell sorting, for example, with a FACSCalibur™ (BD Biosciences, San Jose Calif.).

a4b7(R213S) (human), sequence (P13612 34-1032, chain 1 of 2): as the sequence (P13612 34-1032, chain 1 of 2) above
a4b7(R213S) (human), sequence (P26010 20-798 R213S, chain 2 of 2, further chain): as the sequence (P26010 20-798, chain 2 of 2) above, with R194S counted along it
a4(Q878R)b7 (human), sequence (P13612 34-1032, chain 1 of 2): as the sequence (P13612 34-1032, chain 1 of 2) above
a4(Q878R)b7 (human), sequence (P26010 20-798, chain 2 of 2, further chain): as the sequence (P26010 20-798, chain 2 of 2) above

For human IgG (antibody), the fluorescence staining intensity (geometric mean) with a4b7(R213S) (human) [1] came to 7; with a4(Q878R)b7 (human) [2], 7; in the test with a4(V824A)b7 (human) [3], 7; in the test with a4b7(E97V) (human) [4], 7; in the test with human alpha4beta7 [5], 8; in the test with a4b7(G629S) (human) [6] it was 7.

B1: 17C8 (antibody, V domains shown)
VH: QVQLVESGGGLVKPGGSLRLSCAASGFTFSDYYMSWIRQAPGKGLEWLSYISNSGSAMYYADSVKGRFTISRDNARNSLYLQMNSLRAEDTAVYYCAREYSSGWFFFESWGQGTLVTVSS
VL: EIVMTQSPATLSVSPGERATLSCRASQSVSSNLVWYQQKPGQAPRLLIYGASTRATGIPARFSGSGSGTDFTLTISSLQSEDFAVYYCQQYDDWPPLTFGGGTTVEIK
notes: Fully human monoclonal from XenoMouse (human IgG2 or IgG4); kappa light chain; also called 17C8K; 17C8H
B1: the IC50 in the test with human alpha4beta7 [7] was 31.1 ng/mL. This molecule also had a Kd low with human alpha4beta7 [8] of 12.1 pM. This molecule also came in with an EC50 with human alpha4beta7 [9] of 22.9 ng/mL. The affinity with human alpha4beta7 [10], expressed as Kd, was 29.4 pM. Further, the Kd high with human alpha4beta7 [11] came to 74.5 pM. The “HUT78 Adhesion IC50” value with human alpha4beta7 [12] worked out at 6.8 ng/mL. The fluorescence staining intensity (geometric mean) with a4b7(R213S) (human) [13] turned out to be 49; in the test with a4(Q878R)b7 (human) [14], 51; in the test with a4(V824A)b7 (human) [15], 74; in the test with a4b7(E97V) (human) [16] it was 96; with a4b7(G629S) (human) [17], 58; with human alpha4beta7 [18] it was 93.

B2: 2F12 (antibody, V domains shown)
VH: QVQLVQSGAEVKKPGASVKVSCKVSGYTVTDLSMHWVRQAPGKGLEWMGGFDPQDGETIYAQKFQGRVTMTEDTSTDTAYMELRSLRSEDTAVYYCTTESSSAWFDPWGQGTLVTVSS
VL: DIQMTQSPSSVFASVGDRVTITCRASQGISSWLAWYQQKPGKAPNLLIYGASSLQNGVPLRFSGSGSGTDFTLTISSLQPEDFATYYCQQANSFPWTFGQGTKVEIK
notes: Fully human monoclonal from XenoMouse (human IgG2 or IgG4); kappa light chain; also called 2F12K; 2F12H
B2 registered a half-inhibitory concentration (IC50) with human alpha4beta7 [7] of 4.6 ng/mL. In the test with human alpha4beta7 [8], the Kd low worked out at 1.94 pM. For the same molecule, in the test with human alpha4beta7 [9], the midpoint of the response, the EC50, lay at 3.3 ng/mL. For the same molecule, in the test with human alpha4beta7 [10], the affinity, expressed as Kd, was 4.56 pM. The molecule also displayed a Kd high with human alpha4beta7 [11] of 11.1 pM. The “HUT78 Adhesion IC50” value with human alpha4beta7 [12] was 11.4 ng/mL. Moreover, the fluorescence staining intensity (geometric mean) with a4b7(R213S) (human) [13] was found to be 37; with a4(Q878R)b7 (human) [14], 73; in the test with a4(V824A)b7 (human) [15], 112; in the test with a4b7(E97V) (human) [16] it was 134; with a4b7(G629S) (human) [17], 80; with human alpha4beta7 [18] it was 129.

B3: 18A11 (antibody, V domains shown)
VH: B2 VH with V29L, T30S, M34I, R84S, R87K, T97A, E99G, A103S
VL: B2 VL with F12S, N45K, S53N, Q55E, N56S, L60S, T85N
notes: Fully human monoclonal from XenoMouse (human IgG2 or IgG4); kappa light chain; also called 18A11K; 18A11H
In the case of B3, the IC50 with human alpha4beta7 [7] came out at 7.3 ng/mL. The Kd low in the test with human alpha4beta7 [8] came out at 0.23 pM. Besides, it took 4.7 ng/mL to reach a half-maximal effect with human alpha4beta7 [9] (EC50). In addition, in the test with human alpha4beta7 [10], binding was put at a Kd of 0.9 pM. In the test with human alpha4beta7 [11], this molecule registered a Kd high of 2.29 pM. Moreover, in the test with human alpha4beta7 [12], the “HUT78 Adhesion IC50” value came to 7.4 ng/mL. The fluorescence staining intensity (geometric mean) came out at 30 with a4b7(R213S) (human) [13]; 56 in the test with a4(Q878R)b7 (human) [14]; 82 with a4(V824A)b7 (human) [15]; 105 in the test with a4b7(E97V) (human) [16]; 63 with a4b7(G629S) (human) [17]; 92 in the test with human alpha4beta7 [18].
